Test results as given in the DeepSol protein solubility set.

test: soluble on expression in E. coli; label from the status in PepcDB or PDB records

Sequence	soluble on expression in E. coli
MGSDKIHHHHHHMKILITGATGFVGRRLVKSLSEHQLIILTRNINNAKNNLGSHHQYWQTLTDKSDLNDIDAVINLAGEPIVNKRWSNKQKKLICDSRWDITAALTQLISKSTTPPHTFISASAVGYYGRQDQNPVDETSGFHAEFSHDICQKWEDLALQAQSQQTRVCITRIGIVLGKNGGALAKMLPPFKLGLGGPIGSGEQGMSWIHVDDLISLMAYLLSNTDLQGIFNATAPQPVSNAKFAKALGNALNRPAKITTPPLALRLAMGEMSELLTTGQFVLPKRTLAAGFEFKYSDINSALDHITHSAN	not soluble
MNNVLILLDNPDDWKPYCETKSILTVSDYLKNKPVEKDRKLVINLSNDYSYNSEGYYCSLLAQTRGQRVIPDVDIINKLETGTGIRMDRSLQALCYQWIQKNGIKSDIWYLNIYFGKCREKGLERVARFIFENYPCPLLRVALNTHPKNQIESIQFLPLNRLDDEEQDFFANTLDNFNKKIWRAPKSAKAPRYSLAVLIDPKEKFPPSNKGALHKLSEVAKKMNIHVEMITEDDAMRLLEFDALFIRTTTSLNHYTFHLSQLAAQNGMVVIDDPLSIIRCTNKVYLKELFEKERIPAPKSTLIFQSNENSFEQISEQVGAPFILKIPDGSYSIGMKKVSNEEELKTSLELLFEKSAILLAQAFTPTEFDWRVGLLNGVPLYACKYYMAKGHWQIYCHYDSGRSRCGLVDTIPIYQVPRVVLDTAIKAANLIGKGLYGVDLKMVDDKAYVIEINDNPSIDHELEDAIIGDEMYYRLLNHFEQALEMKHY	not soluble
MFFKRGKILSAGRLNKKSLGIVMLLSVGLLLAGCSGSKSSDTGTYSGSVYTVKRGDTLYRISRTTGTSVKELARLNGISPPYTIEVGQKLKLGGAKSSSITRKSTAKSTTKTASVTPSSAVPKSSWPPVGQRCWLWPTTGKVIMPYSTADGGNKGIDISAPRGTPIYAAGAGKVVYVGNQLRGYGNLIMIKHSEDYITAYAHNDTMLVNNGQSVKAGQKIATMGSTDAASVRLHFQIRYRATAIDPLRYLPPQGSKPKC	not soluble
MTAGGERVTERGTGSDPVDLFIIGGGINGCGIARDAAGRGLSVTLAEMGDLAQATSSASTKLFHGGLRYLEYFEFRLVREALEERETLLVAMPHISWPMRFVLPWQPEMRFAGDTPTARLLGRLMPWARGRRPAWLIRLALETYDRLGGRKILPPARSVDLTRDPAGRALQPRFTKGWEYSDCWVEDSRLVVLNARDAEIRGATILTRTKVVGAERRGDLWHVTTEGARGRQVHRARALVNAGGPWVARIIRETLALPTTEGVRLVRGSHIVTKRLFDHDRCYFFQGTDGRIIFAIPYETDFTLIGTTDQDHRGAPDEARCTPEEQDYLCTFASDYFRKPVTREDIVWTYSGVRPLHDDGARSATAATRDYVLSLDSRGAPLLNVFGGKITTYRRLAESAMAKLAGHFPQARGAWTARVPLPGGDFPWDGAPALAEGLRRDYPFLTERWAMRLVRAYGTDARNLLGPARSALDLGRDFGATLTEAEVRWLMDREYAERAEDVVWRRSKLGLRLTPEEIAALDGWMKDAGGAMEARADTGLEHHHHHH	soluble
SNAKNRLGTKALNFTYTLDSGVKGTLYQFPAEYTLLFINNPGCHACAEMIEGLKASPVINGFTAAKKLKVLSIYPDEELDEWKKHRNDFAKEWTNGYDKELVIKNKNLYDLRAIPTLYLLDKNKTVLLKDATLQKVEQYLAE	soluble
MAKENYSDPNGKLLNSITTFEVNGEEVKLSGNIIRDYLVSGNAEVTDQEIIMFLQLCKYQKLNPFLNEAYLVKFKNTKGPDKPAQIIVSKEAFMKRAETHEQYDGFEAGIIVERNGEVVEIEGAVSLDKDKLLGGWAKVFRKDRSRPVSVRISEREFNKRQSTWNAMPLTMMRKTAVVNAMREAFPDNLGAMYTEEEQGSLQNNETSVQEEIKQNANTEMLDIPAQQIEVPDFKEIREPEHVEMPPIYDEQPSTPPARPY	not soluble
MGSDKIHHHHHHMNADIKISFIDNIDKISASDWQNLNNSPCPFLRYNFFNALEKSESASAKQGWQAHHLVATNNNDVTAVMPMYLKSHSWGEYVFDWDWADAFKRNDIDYYPKLVATIPFTPVSSDKLLTSQGHVNELFEPLIEHCQQENINSWHILYCNEIRTALPEDVYQRNTVQFHWFNRDYETFDDFLNTFTSRKRKNTRKERLSIIEQEIDIRQLKNNEISQQDLEFFYLTYQLTYLKRGHQPHLSYEFFKQIVADMADNILLIIASHEQEDIACALFFYDDSQLYGRYWGCTKHYNNLHFELCYYRGIEFCIQNKLQSFNPGTQGEHKIQRGFEPVLTYSYHWVKHVPFRMAIKNFCQQEQQHMLTYQEQCQQVLPFRKI	not soluble
MSIWCAVCNDLKPCEEATQLIPCLHTFCTKCLKKSTKKMRVCPVAHCYSSLTAPEPMTSTCEGENCQRKIMGNAEILRTACHHDICQHCYDLASRKEKSCCPALGCAELMIDEEDMICEGPCKKALVFDKTIVIPCCGARMCDVCGPKWTNGRDFCELGKCVNKESAKRRKSADATRQPCMGSLHCEGEVLRNFPSELECDHDVCIKCIGSMLDECEKNGKSPACPVKTCAIPYRCESVLALDAQFPEKKAFFSKFTLQAKFSMQTLKDDIVTNIIHGDLNTMNGQKFSLKIGQCDDDDGGMPMEFVREGTLGDLVRETRRVLKILPTDKIYGYYRIDDNKKSKLDVTKDTIRSSCSSLNINENTTVLVDTTGIVSRPKKQ	not soluble
MGGWEEREIRGHSLGHWLSAAAAMYETTGDKALLERIDRAVQELATIQDDVGYVGGVKRAHFDEMFSGEFQVGHFNIAGTWVPWYNLHKLFAGLIDVHQLTGHSLALTVVTKLADWAKKGTDQLTDDQFQRMLICEHGGMNEAMADLYTLTGHKDYLQLAIRFCHWAVLEPLANGIDELEGKHANTQIPKVIGAAKLFEITGDDTYRAIAEFFWRQVTNDRSYIIGGNSNSEHFGPANKETLGVETAETCNTYNMLKLTEHLFRWNRSSQLMDYYEKALYNHILASQDPDSGMKTYFVSLQPGHFKVYSSLEESFWCCFGTGLENPARYTRTIYDRDDRHIYVNLFMASEIHLKDLQVQIRQETNFPETDRTKLTFVKADGVSIKLHIRVPEWVAGPVTARINGKETFSESGADYLTIEREWQKGDEIEVHLPMELRIYEAKDDSHKVGIMYGPIVLAGTFGKDHFPETDIVPNHLSLHNHPLIDVPTLVATKKTPDQWIHPVEGRSLTFRTAAIGQPGNVQITLIPFYALHHERYTVYWNLMSEVEYEAFKARKEVESDQLQARTVDAVQPGEQQPEVEHQLKANHSETGYLNIMQKRWRDSRGEDGFFSYVMKVKPNQQMSLFVTYYGGDHGLFVDGKWCDRSFRILIDDEVIKEEQLLGKNPGETLDVYYPIPLALTEGKEEVVVTFASKEGTVAGGVYGVRMLCNLEHHHHHH	not soluble
MGSDKIHHHHHHMTNMKQLCLICLAFICLFFLDSCGNKNTFRVEGSIAGYEDTAQVYLTKIIGSDLSVLDSVNPDRKGRFSFVAQADSTPSFYQIKLRKQHINFAARIGSEINIQVGRNSFSDYVIEDNQGPDNNNIRKIALLKEQADNRLDHLYRSYQENKLDASQYQDTIAKVIDEFKTTLRNDFIFQDPKSPASYFALFQQKDGLLYFNVYDPMDAKAFAAVATAYDTYYPTSSYTKSVRDLSLLGIAAMRRDRVAKDITTRKIEVKDIPETILIDRKGNEQPLSKVVETNDRVLIVFTSYQAEWSPSLVKEQRALYQRHCNNGFQIYEISVDKDLYFWQNATRTLPWITVNDSEGKAALSFNVRSLPTFFLIQDGELKRLQRLESL	not soluble
ETIELYKSSVPSGKEAGKNALAITNQQLISALENAAKDNKTSQPQARSLTASDQVQITQSSDKVIGYITTSNLDIDNNNTFDVGKLNGDKSTSKIIVNATLKTLNKINTLQSEEGIILPHPQKYKSTDPQAVATVQGPSIIGVHANAKENAETQKFINW	not soluble
METIKSVDIYELGSPGEKSSPWSSTILIVKLTSSNGNIGYGEAPTTFMTLPVKESMREVERVFKDQNYFNIEKNMREFYKHSFYLSRSMEATSALSAFEIASWDLIGKDLGTPVYNLLGGEYNSELRAYANGWYSDCLEPDDFVSRAKEYIKKGYTAFKFDPFRNNFDRIGNDGIKKAVDIVSAMRSELGENIDLLIECHGRFSTKYAIKVGQALDEFNPLFIEEPIHPEMELGLFDFKRYVNTPVALGERLLNKEDFARYISQGMVDIVQADLTNSKGILEAKKISAIVESFGGLMAFHNAFGPVQTAATLNVDYTLTNFLIQESFEDSWPDWKRNLFSGYRIENGHFKLSGKPGLGITADEKLMEKLIYDGMEEFNKNEPSWVVSGTYK	not soluble
MGSDKIHHHHHHMKIIHIVESSATGTLSMVCLIANRLAREGHDVHVIYSVRPDTPPALAAMFDTRVSLRHVQMKGAGLLRIAGRLRATLNEIGPDVVHLHSSFAGFLGRLSTLFALPKAAFFYSPHCISFMRRDISGVKRMAFIGLEWIACVRKCLYVACSESEGHAIRAWLRQPVVVVENAVSDTRSPQRSGDAERLADGPPCVVTVGGIRAQKNPELFARIAHGMRARGTRFVWIGDGDAAEKARLAEAGVEVTGWLPRDEVVRRLERADVYLSTSSWEGMPVSVIEAMLAGRPVIVSDCAGNVDVVRHLQTGLIYTTASDAIAWLERLAGDDALRRELARRASREARQRFGEERLFGELAPLYAASVAR	not soluble
MEKFRVIGSTQPLQGEVTISGAKNAALPILFASILAEEPVEVANVPHLRDIDTTMELLERLGAKVERNGSVHVDAGPINQYCAPYDLVKTMRASIWALGPLVARFGQGQVSLPGGCAIGARPVDLHIHGLEQLGATITLEDGYVKAHVDGRLQGAHIVMDKVSVGATITIMCAATLAEGTTVLDNAAREPEIVDTAMFLNKLGAKISGAGTDSITIEGVERLGGGKHAVVPDRIETGTFLVAAAVSRGKIVCRNTHAHLLEAVLAKLEEAGAEIECGEDWISLDMTGRELKAVTVRTAPHPGFPTDMQAQFTLLNMMAKGGGVITETIFENRFMHVPELKRMGAKAEIEGNTVICGDVDRLSGAQVMATDLRASASLVIAGCIAKGETIVDRIYHIDRGYERIEDKLSALGANIERFRD	not soluble
MGSDKIHHHHHHMSQERTDGDLRNTGLSLKHDREWDYELDRIVEAVEERDAEKVGLQFPEGLKRRGPAVADDLREELPDDVTVLLSGQPCYGACDLDTYMMRRTDVFVHFGHSPMKESDKIIYVPLFSNVDVFPIMEQAREEQLADPEDDPDVGLVTTAQHMNKFDEMREWLEERGYTVHTRRGDERLTHEGQVLGCNYASADVDADQMLYVGGGKFHPLGLAMEHPEKHVVIADPVNNVVTVADTEKFMKQRYGAVHRAMDAESWGVIFCTKIGQGRWDQAEEIVENNENAYLITMDEVTPDRLTNFGMDAYVNTGCPRITTDDGPQFKKPMLTPGEYEIAIGEKPLDSLEFDTFHGTW	not soluble
AHHHHHHASAKWVCKICGYIYDEDAGDPDNGISPGTKFEELPDDWVCPICGAPKSEFEKLEDGSFLPYLSSPYPLYLINLMLMECPPDIYSFSTQNSNNQLKGLFMFKKKEYDRWMVEAKRTLASAYSDLREGYYEWASFKAQQAAELAVKAILRGLSFAPIGHSITKLLRELAENNIKGPKKILYFAMKLDRNYIALRYPDAYPEGPH	soluble
MGSDKIHHHHHHMISDTTIRKLVDYISLNACSVNSSGLYNGKSGISLALFETAKCLQDTEIEDKAFSLFQESLIRKTNDYGFENGMSGIGYVLIYLITNKLIDADFEDLFGDQREAIIKHFENIDKQPDKLLVSYKIIYFLFVLDKLQKQDERIYSIIEKIFQGLELYLSLQFFDWKNIYYINSKDYVLQMYEAYLKLVDFCNYKYFSKSLMDSYVTLYSEGRIASSLVRGYYLHSIITKNNMVGFNDVIRDHIRYGQKNINPAILFLDQKINLTGIIENADENRVKIQRIEMDLFEESLERIKRMVRPNCIHVGYQYGLARYLGFCANKKFPLL	not soluble
